Results as given in US20230406885A1, “CYCLIC PEPTIDES FOR TRAPPING INTERLEUKIN-1 BETA” (MERCK SHARP & DOHME LLC, priority 2022, published 2023).
*1 amine or outer side, *2 acyl side, *3 side chain or, on linkers, in order; H or OH if unused. Primed or numbered codes have the meaning given here. [ ]: non-standard residue; d: D form. aMeNle = (S)-2-amino-2-methylhexanoic acid (alpha-methyl-norleucine), CCCC[C@](C)(N[*:1])C(=O)[*:2]; Phe(4-(trans-4-COOH-cHex)) = N[C@@H](Cc1ccc([C@H]2CC[C@H](C(=O)O)CC2)cc1)C(=O)O; DapAc = (S)-3-acetamido-2-aminopropanoic acid, CC(=O)NC[C@H](N[*:1])C(=O)[*:2]; Phe(4-(4-Ac-piperazinyl)) = CC(=O)N1CCN(c2ccc(C[C@H](N)C(=O)O)cc2)CC1; Pro(trans-4-NH2) = O=C([C@@H]1C[C@@H](N[*:3])CN1[*:1])[*:2]; Bip(4'-COOH) = N[C@@H](Cc1ccc(-c2ccc(C(=O)O)cc2)cc1)C(=O)O; 1Nal(3S-Me) = C[C@@H](c1cccc2ccccc12)[C@H](N)C(=O)O; Ala(indolin-1-yl) = N[C@@H](CN1CCc2ccccc21)C(=O)O; Phe(4-COOH) = N[C@@H](Cc1ccc(C(=O)O)cc1)C(=O)O; h3Pal(5-CN) = N#Cc1cncc(CC[C@H](N)C(=O)O)c1; αMeNle = CCCC[C@](C)(N[*:1])C(=O)[*:2]; hTyr = N[C@@H](CCc1ccc(O)cc1)C(=O)O; hCha = N[C@@H](CCC1CCCCC1)C(=O)O; 4Pal = N[C@@H](Cc1ccncc1)C(=O)O; Cha = N[C@@H](CC1CCCCC1)C(=O)O; dαMeDab′ = not defined here; dDab = NCC[C@@H](N)C(=O)O; Nle = CCCC[C@H](N)C(=O)O; dDap = NC[C@@H](N)C(=O)O; dNMeA = CN[C@H](C)C(=O)O; Dab = NCC[C@H](N)C(=O)O; Dap = NC[C@H](N)C(=O)O

B1: SEQ ID NO: 195 (Example No. 195) (peptide)
peptide: cyclo([Phe(4-(trans-4-COOH-cHex))]W[Phe(4-COOH)]G[Pro(trans-4-NH2)][1Nal(3S-Me)]D[dNMeA]G[Bip(4'-COOH)][4Pal]G[dDab][αMeNle])
SMILES: CCCC[C@]1(C)NC(=O)[C@@H](CCN)NC(=O)CNC(=O)[C@H](Cc2ccncc2)NC(=O)[C@H](Cc2ccc(-c3ccc(C(=O)O)cc3)cc2)NC(=O)CNC(=O)[C@@H](C)N(C)C(=O)[C@H](CC(=O)O)NC(=O)[C@H]([C@@H](C)c2cccc3ccccc23)NC(=O)[C@@H]2C[C@@H](N)CN2C(=O)CNC(=O)[C@H](Cc2ccc(C(=O)O)cc2)NC(=O)[C@H](Cc2c[nH]c3ccccc23)NC(=O)[C@H](Cc2ccc([C@H]3CC[C@H](C(=O)O)CC3)cc2)NC1=O
B2: SEQ ID NO: 196 (Example No. 196) (peptide)
peptide: cyclo([Phe(4-(trans-4-COOH-cHex))]W[Phe(4-COOH)]G[Pro(trans-4-NH2)][1Nal(3S-Me)]D[dNMeA]G[Bip(4'-COOH)][4Pal]G[dDab][hCha])
SMILES: C[C@@H]1C(=O)NCC(=O)N[C@@H](Cc2ccc(-c3ccc(C(=O)O)cc3)cc2)C(=O)N[C@@H](Cc2ccncc2)C(=O)NCC(=O)N[C@H](CCN)C(=O)N[C@@H](CCC2CCCCC2)C(=O)N[C@@H](Cc2ccc([C@H]3CC[C@H](C(=O)O)CC3)cc2)C(=O)N[C@@H](Cc2c[nH]c3ccccc23)C(=O)N[C@@H](Cc2ccc(C(=O)O)cc2)C(=O)NCC(=O)N2C[C@H](N)C[C@H]2C(=O)N[C@@H]([C@@H](C)c2cccc3ccccc23)C(=O)N[C@@H](CC(=O)O)C(=O)N1C
B3: SEQ ID NO: 197 (Example No. 197) (peptide)
peptide: cyclo([Phe(4-(trans-4-COOH-cHex))]W[Phe(4-COOH)]G[Pro(trans-4-NH2)][1Nal(3S-Me)]D[dNMeA]G[Bip(4'-COOH)][4Pal]G[dDab][Nle])
SMILES: CCCC[C@@H]1NC(=O)[C@@H](CCN)NC(=O)CNC(=O)[C@H](Cc2ccncc2)NC(=O)[C@H](Cc2ccc(-c3ccc(C(=O)O)cc3)cc2)NC(=O)CNC(=O)[C@@H](C)N(C)C(=O)[C@H](CC(=O)O)NC(=O)[C@H]([C@@H](C)c2cccc3ccccc23)NC(=O)[C@@H]2C[C@@H](N)CN2C(=O)CNC(=O)[C@H](Cc2ccc(C(=O)O)cc2)NC(=O)[C@H](Cc2c[nH]c3ccccc23)NC(=O)[C@H](Cc2ccc([C@H]3CC[C@H](C(=O)O)CC3)cc2)NC1=O
B4: SEQ ID NO: 198 (Example No. 198) (peptide)
peptide: cyclo([Phe(4-(4-Ac-piperazinyl))]W[Phe(4-COOH)]G[Pro(trans-4-NH2)][1Nal(3S-Me)]D[dNMeA]G[Bip(4'-COOH)][Ala(indolin-1-yl)]G[dDab][hTyr])
SMILES: CC(=O)N1CCN(c2ccc(C[C@@H]3NC(=O)[C@H](CCc4ccc(O)cc4)NC(=O)[C@@H](CCN)NC(=O)CNC(=O)[C@H](CN4CCc5ccccc54)NC(=O)[C@H](Cc4ccc(-c5ccc(C(=O)O)cc5)cc4)NC(=O)CNC(=O)[C@@H](C)N(C)C(=O)[C@H](CC(=O)O)NC(=O)[C@H]([C@@H](C)c4cccc5ccccc45)NC(=O)[C@@H]4C[C@@H](N)CN4C(=O)CNC(=O)[C@H](Cc4ccc(C(=O)O)cc4)NC(=O)[C@H](Cc4c[nH]c5ccccc45)NC3=O)cc2)CC1
B5: SEQ ID NO: 200 (Example No. 200) (peptide)
peptide: cyclo([Phe(4-(4-Ac-piperazinyl))]W[Phe(4-COOH)]G[Pro(trans-4-NH2)][1Nal(3S-Me)]D[dNMeA]G[Bip(4'-COOH)][4Pal]G[dDab][aMeNle])
SMILES: CCCC[C@]1(C)NC(=O)[C@@H](CCN)NC(=O)CNC(=O)[C@H](Cc2ccncc2)NC(=O)[C@H](Cc2ccc(-c3ccc(C(=O)O)cc3)cc2)NC(=O)CNC(=O)[C@@H](C)N(C)C(=O)[C@H](CC(=O)O)NC(=O)[C@H]([C@@H](C)c2cccc3ccccc23)NC(=O)[C@@H]2C[C@@H](N)CN2C(=O)CNC(=O)[C@H](Cc2ccc(C(=O)O)cc2)NC(=O)[C@H](Cc2c[nH]c3ccccc23)NC(=O)[C@H](Cc2ccc(N3CCN(C(C)=O)CC3)cc2)NC1=O
B6: SEQ ID NO: 201 (Example No. 201) (peptide)
peptide: cyclo([Phe(4-(4-Ac-piperazinyl))]W[Phe(4-COOH)]G[Pro(trans-4-NH2)][1Nal(3S-Me)]D[dNMeA]G[Bip(4'-COOH)][4Pal]G[dDab][hCha])
SMILES: CC(=O)N1CCN(c2ccc(C[C@@H]3NC(=O)[C@H](CCC4CCCCC4)NC(=O)[C@@H](CCN)NC(=O)CNC(=O)[C@H](Cc4ccncc4)NC(=O)[C@H](Cc4ccc(-c5ccc(C(=O)O)cc5)cc4)NC(=O)CNC(=O)[C@@H](C)N(C)C(=O)[C@H](CC(=O)O)NC(=O)[C@H]([C@@H](C)c4cccc5ccccc45)NC(=O)[C@@H]4C[C@@H](N)CN4C(=O)CNC(=O)[C@H](Cc4ccc(C(=O)O)cc4)NC(=O)[C@H](Cc4c[nH]c5ccccc45)NC3=O)cc2)CC1
B7: SEQ ID NO: 202 (Example No. 202) (peptide)
peptide: cyclo([Phe(4-(4-Ac-piperazinyl))]W[Phe(4-COOH)]G[Pro(trans-4-NH2)][1Nal(3S-Me)]D[dNMeA]G[Bip(4'-COOH)][Cha]G[dDab][hTyr])
SMILES: CC(=O)N1CCN(c2ccc(C[C@@H]3NC(=O)[C@H](CCc4ccc(O)cc4)NC(=O)[C@@H](CCN)NC(=O)CNC(=O)[C@H](CC4CCCCC4)NC(=O)[C@H](Cc4ccc(-c5ccc(C(=O)O)cc5)cc4)NC(=O)CNC(=O)[C@@H](C)N(C)C(=O)[C@H](CC(=O)O)NC(=O)[C@H]([C@@H](C)c4cccc5ccccc45)NC(=O)[C@@H]4C[C@@H](N)CN4C(=O)CNC(=O)[C@H](Cc4ccc(C(=O)O)cc4)NC(=O)[C@H](Cc4c[nH]c5ccccc45)NC3=O)cc2)CC1
B8: SEQ ID NO: 203 (Example No. 203) (peptide)
peptide: cyclo([Phe(4-(4-Ac-piperazinyl))]W[Phe(4-COOH)]G[Pro(trans-4-NH2)][1Nal(3S-Me)]D[dNMeA]G[Bip(4'-COOH)][Dab]L[dA][hCha])
SMILES: CC(=O)N1CCN(c2ccc(C[C@@H]3NC(=O)[C@H](CCC4CCCCC4)NC(=O)[C@@H](C)NC(=O)[C@H](CC(C)C)NC(=O)[C@H](CCN)NC(=O)[C@H](Cc4ccc(-c5ccc(C(=O)O)cc5)cc4)NC(=O)CNC(=O)[C@@H](C)N(C)C(=O)[C@H](CC(=O)O)NC(=O)[C@H]([C@@H](C)c4cccc5ccccc45)NC(=O)[C@@H]4C[C@@H](N)CN4C(=O)CNC(=O)[C@H](Cc4ccc(C(=O)O)cc4)NC(=O)[C@H](Cc4c[nH]c5ccccc45)NC3=O)cc2)CC1
B9: SEQ ID NO: 204 (Example No. 204) (peptide)
peptide: cyclo([Phe(4-(4-Ac-piperazinyl))]W[Phe(4-COOH)]G[Pro(trans-4-NH2)][1Nal(3S-Me)]D[dNMeA]G[Bip(4'-COOH)][DapAc]K[dA][h3Pal(5-CN)])
SMILES: CC(=O)NC[C@@H]1NC(=O)[C@H](Cc2ccc(-c3ccc(C(=O)O)cc3)cc2)NC(=O)CNC(=O)[C@@H](C)N(C)C(=O)[C@H](CC(=O)O)NC(=O)[C@H]([C@@H](C)c2cccc3ccccc23)NC(=O)[C@@H]2C[C@@H](N)CN2C(=O)CNC(=O)[C@H](Cc2ccc(C(=O)O)cc2)NC(=O)[C@H](Cc2c[nH]c3ccccc23)NC(=O)[C@H](Cc2ccc(N3CCN(C(C)=O)CC3)cc2)NC(=O)[C@H](CCc2cncc(C#N)c2)NC(=O)[C@@H](C)NC(=O)[C@H](CCCCN)NC1=O
B10: SEQ ID NO: 205 (Example No. 205) (peptide)
peptide: cyclo([Phe(4-(4-Ac-piperazinyl))]W[Phe(4-COOH)]G[Pro(trans-4-NH2)][1Nal(3S-Me)]D[dNMeA]G[Bip(4'-COOH)][DapAc]L[dDap][h3Pal(5-CN)])
SMILES: CC(=O)NC[C@@H]1NC(=O)[C@H](Cc2ccc(-c3ccc(C(=O)O)cc3)cc2)NC(=O)CNC(=O)[C@@H](C)N(C)C(=O)[C@H](CC(=O)O)NC(=O)[C@H]([C@@H](C)c2cccc3ccccc23)NC(=O)[C@@H]2C[C@@H](N)CN2C(=O)CNC(=O)[C@H](Cc2ccc(C(=O)O)cc2)NC(=O)[C@H](Cc2c[nH]c3ccccc23)NC(=O)[C@H](Cc2ccc(N3CCN(C(C)=O)CC3)cc2)NC(=O)[C@H](CCc2cncc(C#N)c2)NC(=O)[C@@H](CN)NC(=O)[C@H](CC(C)C)NC1=O
B11: SEQ ID NO: 206 (Example No. 206) (peptide)
peptide: cyclo([Phe(4-(4-Ac-piperazinyl))]W[Phe(4-COOH)]G[Pro(trans-4-NH2)][1Nal(3S-Me)]D[dNMeA]G[Bip(4'-COOH)][Dap]L[dA][hCha])
SMILES: CC(=O)N1CCN(c2ccc(C[C@@H]3NC(=O)[C@H](CCC4CCCCC4)NC(=O)[C@@H](C)NC(=O)[C@H](CC(C)C)NC(=O)[C@H](CN)NC(=O)[C@H](Cc4ccc(-c5ccc(C(=O)O)cc5)cc4)NC(=O)CNC(=O)[C@@H](C)N(C)C(=O)[C@H](CC(=O)O)NC(=O)[C@H]([C@@H](C)c4cccc5ccccc45)NC(=O)[C@@H]4C[C@@H](N)CN4C(=O)CNC(=O)[C@H](Cc4ccc(C(=O)O)cc4)NC(=O)[C@H](Cc4c[nH]c5ccccc45)NC3=O)cc2)CC1
B12: SEQ ID NO: 207 (Example No. 207) (peptide)
peptide: cyclo([Phe(4-(4-Ac-piperazinyl))]W[Phe(4-COOH)]G[Pro(trans-4-NH2)][1Nal(3S-Me)]D[dNMeA]G[Bip(4'-COOH)]KL[dA][hCha])
SMILES: CC(=O)N1CCN(c2ccc(C[C@@H]3NC(=O)[C@H](CCC4CCCCC4)NC(=O)[C@@H](C)NC(=O)[C@H](CC(C)C)NC(=O)[C@H](CCCCN)NC(=O)[C@H](Cc4ccc(-c5ccc(C(=O)O)cc5)cc4)NC(=O)CNC(=O)[C@@H](C)N(C)C(=O)[C@H](CC(=O)O)NC(=O)[C@H]([C@@H](C)c4cccc5ccccc45)NC(=O)[C@@H]4C[C@@H](N)CN4C(=O)CNC(=O)[C@H](Cc4ccc(C(=O)O)cc4)NC(=O)[C@H](Cc4c[nH]c5ccccc45)NC3=O)cc2)CC1

Biological target: Recombinant human IL-1β (BioLegend 579404) (human, UniProt P01584 117-269)
Assay: cell-based or functional assay

Binder	MRC5 IC50
B1	0.022 nM
B2	0.03 nM
B3	0.024 nM
B4	0.021 nM
cyclo([Phe(4-(4-Ac-piperazinyl))]W[Phe(4-COOH)]G[Pro(trans-4-NH2)][1Nal(3S-Me)]D[dNMeA]G[Bip(4'-COOH)][4Pal]G[dαMeDab′][hCha]) [SEQ ID NO: 199 (Example No. 199)]	0.024 nM
B5	0.034 nM
B6	0.03 nM
B7	0.029 nM
B8	0.012 nM
B9	0.009 nM
B10	0.01 nM
B11	0.015 nM
B12	0.011 nM
cyclo([Phe(4-(4-Ac-piperazinyl))]W[Phe(4-COOH)]G[Pro(trans-4-NH2)][1Nal(3S-Me)]D[dNMeA]G[Bip(4'-COOH)][LysAc]L[dA][h3Pal(5-CN)]) [SEQ ID NO: 208 (Example No. 208)]	0.018 nM
